From US20140171623A1 (published 2014)

Assays:
[1] = target: T1, human EphA2-Fc (human, UniProt P29317 25-534, limits assumed); assay: KinExA, solution equilibrium titration with human EphA2-Fc
T1 construct: not shown: Fc part; origin and limits not described
Method: Protein concentrations were calculated by the BCA method. […] Coated beads were then separated from unreacted EphA2-Fc using a gentle pulse spin and blocked for approximately 2 h at room temperature with 1 M Tris, pH 8.0, bovine serum albumin 10 mg/mL. Beads were then resuspended in 30 mL of run buffer (PBS, pH 7.4-0.02% NaN₃) and packed into a column. […] The amount of free IgG in the samples was derived from the fluorescence signal obtained after the passing of Cy5-labeled goat anti-human IgG F(ab′)₂ (typically 0.5-2 μg/ml; Jackson ImmunoResearch Laboratories, West Grove, Pa.) through the column. Dissociation constants (KDs) were determined by fitting the individual equilibrium titration data to a 1:1 binding model using the KinExA Pro 1.0.3. software.

[2] = target: T2, human C1q (Quidel) (human, UniProt P02745 23-245; P02746 28-253; P02747 29-245); assay: SPR (BIAcore 3000), IgG immobilised, soluble human C1q, equilibrium fit
T2 construct: Bought protein (Quidel, CA); In the CDC assays C1q came with normal human serum complement; also called complement protein C1q; soluble human C1q
T2 sequence (P02745 23-245 limits assumed, chain 1 of 3): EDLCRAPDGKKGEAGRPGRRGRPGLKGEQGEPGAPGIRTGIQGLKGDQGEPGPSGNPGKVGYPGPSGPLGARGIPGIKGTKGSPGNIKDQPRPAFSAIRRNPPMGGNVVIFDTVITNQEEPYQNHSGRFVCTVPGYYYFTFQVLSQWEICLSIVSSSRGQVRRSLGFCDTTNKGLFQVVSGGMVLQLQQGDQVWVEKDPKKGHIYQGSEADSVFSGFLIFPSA
T2 sequence (P02746 28-253 limits assumed, chain 2 of 3): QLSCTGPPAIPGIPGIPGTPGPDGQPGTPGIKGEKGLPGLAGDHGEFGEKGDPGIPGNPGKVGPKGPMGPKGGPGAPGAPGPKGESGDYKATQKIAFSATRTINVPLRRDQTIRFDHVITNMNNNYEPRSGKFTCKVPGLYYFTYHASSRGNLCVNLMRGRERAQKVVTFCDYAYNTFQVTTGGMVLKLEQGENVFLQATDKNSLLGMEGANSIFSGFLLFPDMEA
T2 sequence (P02747 29-245 limits assumed, chain 3 of 3): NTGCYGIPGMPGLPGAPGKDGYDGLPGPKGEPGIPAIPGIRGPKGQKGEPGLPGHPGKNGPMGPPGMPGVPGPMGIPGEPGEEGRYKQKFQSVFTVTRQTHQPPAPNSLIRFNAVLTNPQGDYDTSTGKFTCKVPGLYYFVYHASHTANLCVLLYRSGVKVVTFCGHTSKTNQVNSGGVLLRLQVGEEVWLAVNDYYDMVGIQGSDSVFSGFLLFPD
Method: Protein concentrations were calculated by the bicinchoninic acid methods. The different human IgG1s were coupled to the dextran matrix of a CM5 sensor chip (Pharmacia Biosensor) using an Amine Coupling Kit as described (Johnsson et al., 1991, Anal. Biochem. 198: 268-77) at a surface density of between 4830 and 9221 RU. Excess reactive esters were quenched by injection of 70 μl of 1.0 M ethanolamine hydrochloride, pH 8.5. […] Dilutions and binding experiments were carried out in 50 mM HBS buffer containing 0.01 M HEPES pH 7.4, 0.15 M NaCl, 3 mM EDTA and 0.005% P-20. Data were collected for about […], and two 1-min pulse of 1M NaCl/50 mM NaOH were used to regenerate the surfaces. Human C1q was allowed to flow over an uncoated cell, and the sensorgrams from these blank runs subtracted from those obtained with IgG1-coupled chips.

[3] = target: T3, FLAG-tagged extracellular domain of human FcγRIIIA (F158 allotype) (human, UniProt P08637 17-208); assay: SPR (BIAcore 3000), IgG immobilised, soluble FLAG-tagged human FcγRIIIA, equilibrium fit
T3 construct: extracellular domain; Secreted from HEK 293 cells, purified on anti-FLAG M2 agarose; also called FLAG-tagged FcγRIIIA; Flag-tagged Human FcγRIIIA; not shown: FLAG tag
T3 sequence (P08637 17-208): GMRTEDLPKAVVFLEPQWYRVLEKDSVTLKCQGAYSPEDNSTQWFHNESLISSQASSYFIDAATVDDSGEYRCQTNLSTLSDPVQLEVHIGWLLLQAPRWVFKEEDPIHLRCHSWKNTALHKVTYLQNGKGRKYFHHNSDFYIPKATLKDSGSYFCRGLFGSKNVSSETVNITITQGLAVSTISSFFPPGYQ
Method: Protein concentrations were calculated by the bicinchoninic acid methods. The different human IgG1s were coupled to the dextran matrix of a CM5 sensor chip (Pharmacia Biosensor) using an Amine Coupling Kit as described (Johnsson et al., 1991, Anal. Biochem. 198: 268-77) at a surface density of between 7765 and 8385 RU. Excess reactive esters were quenched by injection of 70 μl of 1.0 M ethanolamine hydrochloride, pH 8.5. […] Dilutions and binding experiments were carried out in 50 mM HBS buffer containing 0.01 M HEPES pH 7.4, 0.15 M NaCl, 3 mM EDTA and 0.005% P-20. Data were collected for about 50 min, and one 30 sec pulse of 5 mM HCl was used to regenerate the surfaces. Flag-tagged human FcγRIIIA was allowed to flow over an uncoated cell, and the sensorgrams from these blank runs subtracted from those obtained with IgG1-coupled chips.

T1 sequence (P29317 25-534 limits assumed): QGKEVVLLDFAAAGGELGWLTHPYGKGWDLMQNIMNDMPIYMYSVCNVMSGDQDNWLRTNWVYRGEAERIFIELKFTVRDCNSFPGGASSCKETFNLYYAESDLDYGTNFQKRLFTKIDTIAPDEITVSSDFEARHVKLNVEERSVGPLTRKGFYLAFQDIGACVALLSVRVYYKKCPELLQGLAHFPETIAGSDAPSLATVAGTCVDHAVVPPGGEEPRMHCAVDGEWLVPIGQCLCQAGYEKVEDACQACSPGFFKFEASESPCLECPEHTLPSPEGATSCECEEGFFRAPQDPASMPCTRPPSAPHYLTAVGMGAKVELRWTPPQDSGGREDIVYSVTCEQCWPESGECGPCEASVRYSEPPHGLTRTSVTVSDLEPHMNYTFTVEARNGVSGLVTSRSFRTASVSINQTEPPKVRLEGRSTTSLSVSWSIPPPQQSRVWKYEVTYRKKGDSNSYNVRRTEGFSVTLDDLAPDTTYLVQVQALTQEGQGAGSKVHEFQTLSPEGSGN

| Binder | Kd [1] | Kd [2] | Kd [3] |
| --- | --- | --- | --- |
| mAb 12G3H11 (wild type hinge), human anti-human EphA2 IgG1 (antibody, domain: CH1;domain: lower hinge, CH2, CH3; Human IgG1/κ from HEK 293 cells; also called Wild type (12G3H11); not shown: human κ chain constant region) heavy: not shown light: DIQMTQSPSSLSASVGDRVTITCRASQSISNNLHWYQQKPGKAPKLLIKYAFQSISGVPSRFSGSGSGTDFTFTISSLQPEDFATYYCQQANSWPLTFGGGTKVEIK | 0.0011 nM | 89 nM | 6050 nM |
| 12G3H11 Fc variant 5-GGG Insert Low (antibody, human IgG1, domain: CH1;domain: lower hinge, CH2, CH3; Human IgG1/κ; not shown: human κ chain constant region) heavy: not shown light: DIQMTQSPSSLSASVGDRVTITCRASQSISNNLHWYQQKPGKAPKLLIKYAFQSISGVPSRFSGSGSGTDFTFTISSLQPEDFATYYCQQANSWPLTFGGGTKVEIK | 0.0008 nM | 282 nM | – |
| 12G3H11 Fc variant 13-2 AA Delete Mid (antibody, human IgG1, domain: CH1;domain: lower hinge, CH2, CH3; Human IgG1/κ; not shown: human κ chain constant region) heavy: not shown light: DIQMTQSPSSLSASVGDRVTITCRASQSISNNLHWYQQKPGKAPKLLIKYAFQSISGVPSRFSGSGSGTDFTFTISSLQPEDFATYYCQQANSWPLTFGGGTKVEIK | 0.0017 nM | – | – |
| 12G3H11 Fc variant 6-GGG Insert High (antibody, human IgG1, domain: CH1;domain: lower hinge, CH2, CH3; Human IgG1/κ; not shown: human κ chain constant region) heavy: not shown light: DIQMTQSPSSLSASVGDRVTITCRASQSISNNLHWYQQKPGKAPKLLIKYAFQSISGVPSRFSGSGSGTDFTFTISSLQPEDFATYYCQQANSWPLTFGGGTKVEIK | 0.0027 nM | – | – |
| 12G3H11 Fc variant 18-EPKS to PPPP (antibody, human IgG1, domain: CH1;domain: lower hinge, CH2, CH3; Human IgG1/κ; not shown: human κ chain constant region) heavy: not shown light: DIQMTQSPSSLSASVGDRVTITCRASQSISNNLHWYQQKPGKAPKLLIKYAFQSISGVPSRFSGSGSGTDFTFTISSLQPEDFATYYCQQANSWPLTFGGGTKVEIK | 0.0015 nM | 75 nM | – |
| 12G3H11 Fc variant 8-PP to GG Low (antibody, human IgG1, domain: CH1;domain: lower hinge, CH2, CH3; Human IgG1/κ; not shown: human κ chain constant region) heavy: not shown light: DIQMTQSPSSLSASVGDRVTITCRASQSISNNLHWYQQKPGKAPKLLIKYAFQSISGVPSRFSGSGSGTDFTFTISSLQPEDFATYYCQQANSWPLTFGGGTKVEIK | – | 155 nM | 6400 nM |
| 12G3H11 Fc variant 17-DKTHT to PPPPP (antibody, human IgG1, domain: CH1;domain: lower hinge, CH2, CH3; Human IgG1/κ; not shown: human κ chain constant region) heavy: not shown light: DIQMTQSPSSLSASVGDRVTITCRASQSISNNLHWYQQKPGKAPKLLIKYAFQSISGVPSRFSGSGSGTDFTFTISSLQPEDFATYYCQQANSWPLTFGGGTKVEIK | – | 91 nM | – |
| 12G3H11 Fc variant 14-T to C Middle (antibody, human IgG1, domain: CH1;domain: lower hinge, CH2, CH3; Human IgG1/κ; not shown: human κ chain constant region) heavy: not shown light: DIQMTQSPSSLSASVGDRVTITCRASQSISNNLHWYQQKPGKAPKLLIKYAFQSISGVPSRFSGSGSGTDFTFTISSLQPEDFATYYCQQANSWPLTFGGGTKVEIK | 0.0072 nM | – | – |
| 12G3H11 Fc variant 19-PP to WW Low (antibody, human IgG1, domain: CH1;domain: lower hinge, CH2, CH3; Human IgG1/κ; not shown: human κ chain constant region) heavy: not shown light: DIQMTQSPSSLSASVGDRVTITCRASQSISNNLHWYQQKPGKAPKLLIKYAFQSISGVPSRFSGSGSGTDFTFTISSLQPEDFATYYCQQANSWPLTFGGGTKVEIK | – | 274 nM | – |
| 12G3H11 Fc variant 1-CD Invert (antibody, human IgG1, domain: CH1;domain: lower hinge, CH2, CH3; Human IgG1/κ; not shown: human κ chain constant region) heavy: not shown light: DIQMTQSPSSLSASVGDRVTITCRASQSISNNLHWYQQKPGKAPKLLIKYAFQSISGVPSRFSGSGSGTDFTFTISSLQPEDFATYYCQQANSWPLTFGGGTKVEIK | – | 92 nM | – |
| 12G3H11 Fc variant 20-KT to WW Mid (antibody, human IgG1, domain: CH1;domain: lower hinge, CH2, CH3; Human IgG1/κ; not shown: human κ chain constant region) heavy: not shown light: DIQMTQSPSSLSASVGDRVTITCRASQSISNNLHWYQQKPGKAPKLLIKYAFQSISGVPSRFSGSGSGTDFTFTISSLQPEDFATYYCQQANSWPLTFGGGTKVEIK | – | 61 nM | – |
